# In the supplement of paper PMC10567573:
# B1: WDFY1 (parent)
# chain: LLIPKEDGVITASEDRTIRVWLKR
# B2: SLC2A12 (parent)
# chain: LTLVFFVQITGQPNILFYASTVLK
# Variants of: B1
# Assay: protein stability index of a GFP-peptide fusion (GPS, HEK-293T) (PSI 1-6); higher = more stable
# Details: c terminus: a fixed tail appended
# 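Note: lentivirally expressed fusions sorted by FACS into six bins by GFP to DsRed ratio, PSI derived from sequencing read proportions per bin multiplied by bin number.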
row,Variant,protein stability index
1,LLIPKEDGVITASEDRTIKVWLKR,2.09
2,LLIPKEDGVITASEDRTIPVWLKR,2.45
3,LLIPKEDGVITASEDRTISVWLKR,1.91
4,LLIPKEDGVITASEDRTINVWLKR,1.83
5,LLIPKEDGVITASEDRTIWVWLKR,1.71
6,LLIPKEDGVITASEDRTIMVWLKR,2.44
7,LLIPKEDGVITASEDRTIEVWLKR,1.92
8,LLIPKEDGVITASEDRTITVWLKR,1.7
9,LLIPKEDGVITASEDRTICVWLKR,2.5
10,LLIPKEDGVITASEDRTIVVWLKR,2.21
11,LLIPKEDGVITASEDRTILVWLKR,1.31
12,LLIPKEDGVITASEDRTIYVWLKR,2.66
13,LLIPKEDGVITASEDRTIAVWLKR,2.03
14,LLIPKEDGVITASEDRTIDVWLKR,2.28
15,LLIPKEDGVITASEDRTIRVWLKS,2.18
16,LLIPKEDGVITASEDRTIRVWLKG,3.37
17,LLIPKEDGVITASEDRTIRVWLKN,2.34
18,LLIPKEDGVITASEDRTIRVWLKA,1.84
19,LLIPKEDGVITASEDRTIRVWLKD,3.09
20,LLIPKEDGVITASEDRTIRVWLKY,2.07

row,Variant,protein stability index
1,LLIPKEDGVITASEDRTIRVWLKV,1.69
2,LLIPKEDGVITASEDRTIRVWLKQ,2.71
3,LLIPKEDGVITASEDRTIRVWLKM,1.53
4,LLIPKEDGVITASEDRTIRVWLKL,1.83
5,LLIPKEDGVITASEDRTIRVWLKE,2.48
6,LLIPKEDGVITASEDRTIRVWLKK,2.08
7,LLIPKEDGVITASEDRTIRVWLKI,3.32
8,LLIPKEDGVITASEDRTIRVWLKF,2.44
9,LLIPKEDGVITASEDRTIRVWLKW,2.01
10,LLIPKEDGVITASEDRTIRVWLKH,2.03
11,LLIPKEDGVITASEDRTIRVWLKP,2.07
12,LLIPKEDGVITASEDRTIRIWLKR,2.64
13,LLIPKEDGVITASEDRTIRYWLKR,1.87
14,LLIPKEDGVITASEDRTIRTWLKR,2.95
15,LLIPKEDGVITASEDRTIRMWLKR,1.66
16,LLIPKEDGVITASEDRTIRHWLKR,2.1
17,LLIPKEDGVITASEDRTIRDWLKR,2.52
18,LLIPKEDGVITASEDRTIRWWLKR,1.72
19,LLIPKEDGVITASEDRTIRCWLKR,2.39
20,LLIPKEDGVITASEDRTIRPWLKR,2.44

row,Variant,protein stability index
1,LLIPKEDGVITASEDRTIRKWLKR,2.41
2,LLIPKEDGVITASEDRTIRLWLKR,2.29
3,LLIPKEDGVITASEDRTIREWLKR,1.73
4,LLIPKEDGVITASEDRTIRRWLKR,1.64
5,LLIPKEDGVITASEDRTIRSWLKR,2.15
6,LLIPKEDGVITASEDRTHRVWLKR,2.34
7,LLIPKEDGVITASEDRTKRVWLKR,1.74
8,LLIPKEDGVITASEDRTVRVWLKR,2.61
9,LLIPKEDGVITASEDRTGRVWLKR,2.93
10,LLIPKEDGVITASEDRTYRVWLKR,2.04
11,LLIPKEDGVITASEDRTQRVWLKR,3.97
12,LLIPKEDGVITASEDRTSRVWLKR,2.94
13,LLIPKEDGVITASEDRTPRVWLKR,3.15
14,LLIPKEDGVITASEDRTERVWLKR,2.52
15,LLIPKEDGVITASEDRTCRVWLKR,2.07
16,LLIPKEDGVITASEDRTLRVWLKR,2.29
17,LLIPKEDGVITASEDRTMRVWLKR,1.76
18,LLIPKEDGVITASEDRTTRVWLKR,2.89
19,LLIPKEDGVITASEDRTRRVWLKR,3.55

# Variants of: B2
# Assay: as above
# Details: c terminus: a fixed tail appended
row,Variant,protein stability index
1,LTDVFFVQITGQPNILFYASTVLK,2.9
2,LTAVFFVQITGQPNILFYASTVLK,3.64
3,KTLVFFVQITGQPNILFYASTVLK,2.96
4,VTLVFFVQITGQPNILFYASTVLK,2.75
5,RTLVFFVQITGQPNILFYASTVLK,1.8
6,WTLVFFVQITGQPNILFYASTVLK,2.65
7,NTLVFFVQITGQPNILFYASTVLK,1.69
8,STLVFFVQITGQPNILFYASTVLK,3.18
9,CTLVFFVQITGQPNILFYASTVLK,2.29
10,PTLVFFVQITGQPNILFYASTVLK,2.54
11,YTLVFFVQITGQPNILFYASTVLK,2.85
12,HTLVFFVQITGQPNILFYASTVLK,2.7
13,ATLVFFVQITGQPNILFYASTVLK,2.8
14,DTLVFFVQITGQPNILFYASTVLK,2.23
15,FTLVFFVQITGQPNILFYASTVLK,4.63
16,ETLVFFVQITGQPNILFYASTVLK,2.27
17,GTLVFFVQITGQPNILFYASTVLK,4.08
18,TTLVFFVQITGQPNILFYASTVLK,3.79

row,Variant,protein stability index
1,MTLVFFVQITGQPNILFYASTVLK,3.03
2,ITLVFFVQITGQPNILFYASTVLK,2.33
3,LCLVFFVQITGQPNILFYASTVLK,2.24
4,LPLVFFVQITGQPNILFYASTVLK,2.78
5,LMLVFFVQITGQPNILFYASTVLK,3.56
6,LSLVFFVQITGQPNILFYASTVLK,3.26
7,LFLVFFVQITGQPNILFYASTVLK,2.44
8,LYLVFFVQITGQPNILFYASTVLK,3.04
9,LALVFFVQITGQPNILFYASTVLK,2.61
10,LKLVFFVQITGQPNILFYASTVLK,3.54
11,LILVFFVQITGQPNILFYASTVLK,4.67
12,LGLVFFVQITGQPNILFYASTVLK,2.15
13,LWLVFFVQITGQPNILFYASTVLK,2.96
14,LNLVFFVQITGQPNILFYASTVLK,3.71
15,LDLVFFVQITGQPNILFYASTVLK,2.45
16,LELVFFVQITGQPNILFYASTVLK,1.69
17,LLLVFFVQITGQPNILFYASTVLK,3.88
